{
  "source": "paper PMC3670613",
  "about": "(Structure (London, England : 1993), 2013)",
  "binders": {"B1": {"name": "S. cerevisiae Rpt6 C-terminal domain (Rpt6-C), P318-K405 (domain or fragment, UniProt Q01939 318-405, looked up)", "chain": "PPSVAARAEILRIHSRKMNLTRGINLRKVAEKMNGCSGADVKGVCTEAGMYALRERRIHVTQEDFELAVGKVMNKNQETAISVAKLFK"}, "B2": {"name": "Rpt6-C G^360,387A (domain or fragment, S. cerevisiae, UniProt Q01939 318-405, looked up)", "chain": "B1 chain with G43A, G70A"}, "B3": {"name": "Rpt6-C (P318-N393) (domain or fragment, S. cerevisiae, UniProt Q01939 318-393, looked up)", "chain": "PPSVAARAEILRIHSRKMNLTRGINLRKVAEKMNGCSGADVKGVCTEAGMYALRERRIHVTQEDFELAVGKVMNKN"}},
  "key": {"[1]": {"target": "T1, S. cerevisiae Rpn14 (recombinant) (S. cerevisiae, UniProt P53196 1-417)", "T1 sequence (P53196 whole entry)": "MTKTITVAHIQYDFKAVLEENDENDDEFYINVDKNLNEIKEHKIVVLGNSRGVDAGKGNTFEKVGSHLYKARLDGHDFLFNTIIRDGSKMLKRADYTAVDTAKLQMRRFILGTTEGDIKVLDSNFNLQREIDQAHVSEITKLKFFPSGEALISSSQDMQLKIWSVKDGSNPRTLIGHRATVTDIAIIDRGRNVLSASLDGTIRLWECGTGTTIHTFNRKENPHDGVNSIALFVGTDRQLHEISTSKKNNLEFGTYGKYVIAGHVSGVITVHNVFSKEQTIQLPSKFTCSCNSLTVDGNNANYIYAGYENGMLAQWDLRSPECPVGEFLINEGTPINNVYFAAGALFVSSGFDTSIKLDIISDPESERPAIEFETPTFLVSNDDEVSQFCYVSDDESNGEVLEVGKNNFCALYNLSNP", "assay": "AUC"}, "[2]": {"target": "T1, S. cerevisiae Rpn14 (recombinant)", "assay": "AUC", "remark": "listed apart in the source"}, "[3]": {"target": "T1, S. cerevisiae Rpn14 (recombinant)", "assay": "NMR titration"}},
  "note": "Where a chain is given by its changes, count along the chain named. Like-named read-outs stand apart in the source and are kept apart here.",
  "data": [
    {"binder": "B1", "values": [
      {"measurement": "Kd", "setting": "[1]", "result": 0.25, "unit": "nM"},
      {"measurement": "stoichiometry N", "setting": "[1]", "result": 1}
    ]},
    {"binder": "B2", "values": [
      {"measurement": "Kd", "setting": "[2]", "result": 0.01, "unit": "nM"}
    ]},
    {"binder": "B3", "values": [
      {"measurement": "binding result", "setting": "[3]", "result": "binds"}
    ]}
  ]
}
